From patent publication US20040067882A1 (published 2004)

Target: the molecule itself
Assay: self-association, non-reducing western blot

B1: CG57094-02 purified protein (angiopoietin-related protein, ARP, mature region; CHO-K1 stable cell expression, plasmid 1614) (ligand)
chain: GPVQSKSPRFASWDEMNVLAHGLLQLGQGLREHAERTRSQLSALERRLSACGSACQGTEGSTDLPLAPESRVDPEVLHSLQTQLKAQNSRIQQLFHKVAQQQRHLEKQHLRIQHLQSQFGLLDHKHLDHEVAKPARRKRLPEMAQPVDPAHNVSRLHRLPRDCQELFQVGERQSGLFEIQPQGSPPFLVNCKMTSDGGWTVIQRRHDGSVDFNRPWEAYKAGFGDPHGEFWLGLEKVHSITGDRNSRLAVQLRDWDGNAELLQFSVHLGGEDTAYSLQLTAPVAGQLGATTVPPSGLSVPFSTWDQDHDLRRDKNCAKSLSGGWWFGTCSHSNLNGQYFRSIPQQRQKLKKGIFWKTWRGRYYPLQATTMLIQPMAAEAAS
notes: also called NOV25s; CG57094 variant 02; not shown: C-terminal V5 and His tags from the pEE14.4 Sec vector
binding result: binds
